Results published in a protein production outcome set (Wang et al. 2014).

Experiment: label from the status in PepcDB records
With “MPVKTFVFDQIQKLMGWCPACRKMTLQTEQPCNFINTAQISGKTGNIPEFRTSNIIFPANTTLVFVLFYICISLLLRYPEDISLFLAGLFLLNIFYYFLYLKTLEAAVLVDRFGVHMHAFRLKKFEIPFEEIESMKLCRLEKRSKKMSLLLVIGGIALCGFFVYIAVAEGEWKPLLLLVSIIPLLLLVEMKQKMRFWNLNTQLYIKTRHKKLYEWTPYYSLITDEASAEELKSFIERHL” the protein production was “failed”. For “MPVLVLLLAVGTGCVSTGTNPVSGNTRAYGYSWQEEVTMGQKADKQIQSQYGVYDDEELQEYVDGVAQEVLAESHMRRPDTPERFRNTEFEFRVLDSPIINAFALPGGYVYVTRGLVAHLNNEAQLAMVLGHEIGHVAARHASQQAARQKFTQGLLLSGAVAGQVAFGGNVAENVMGLGGQAAQLLSLSYSRDNERESDRLGVEYAVRAGYDGAEGAAFFESLERVREQGGQSIPTWQSTHPDPGARQQTIPELAQTWRKKVDRPATTIDQDAYYNALEGTVLGKNPRQGFVEEGVFYQPELAFRFSIPSRWDVQNQPQQVALVQPDQSAYMIFTFSDAETPDAAARKFAGQDGLSVLDRQSTSVNGNDARRVLAEGKTQQGQVVRLLTYFIAYGDNVYQFQGTTSADRYDAYRPDFERTMTSFARLTDSEKLNRQPARIAIQAADREGAFRSFVDTDALPSDMTEEDLAIINQLDVDQVVAPDRPLKLPN”, the protein production was “failed”. With “MPVMQSRIIHLSVEKPWAEVYDFAANPGNMPRWAAGLAGGLEADGEDWIAKGGPLGEVRVNFAPHNEFGVIDHVVTLPDGLKVYNALRVTPNGSGTEVSFTLLRLEGMTDEDFEQDASAITADLEMLKSLLEAD” the protein production was “not failed”. With “MPVPPEFPLSVFYDGSCSVCATEMEAYMRKEHGGRLLFVDISAPSFDPTPYGITLDAFMYQMHAIDRTGRVYLSVEAFWAIWQAFPASTLYGFLGALVMLPGVNLLARAGYRGFARIRKYLPRRRETCAGGSCRIGQREE” the protein production was “failed”. With “MPVRVIVDSSACLPTHVAEDLDITVINLHVMNNGEERSTSGLSSLELAASYARQLERGGDDGVLALHISKELSSTWSAAVTAAAVFDDDSVRVVDTSSLGMAVGAAAMAAARMAKDGASLQECYDIAVDTLKRSETWIYLHRIDEIWKSGRISTATAMVSTALATRPIMRFNGGRMEIAAKTRTQSKAFAKLVELAQIRADGEPVFIAIGQNEAREAAKQLEELLRNALPEGSSFMSVDIDPTLAVHSGPGAVSVSAVFANQAPELSTGKAGAK” the protein production was “not failed”. In the case of “MPVSNEIWQLLSRLAEDIRPIGVNISAGEPNRLWTEAKWRALLERFPGERFVVLSGPDDLDAKRRLEEQCPNAVASPPTRNLYEASCIVAKLRLLVTPDTSMVHVASATGTPVAGLYREAPQDISRFGPYAIPYEIVISPTGEVSGIKPESVADAVRRLMARAIGREALEHHHHHH”, the protein production is reported as “not failed”. For “MPYEMKFKGVYVLAMEDNSSFKGKIEVGDTVTGVDGKSFKSSEELMNYIKAQKVNQKVTVQFIQDGKAKEATGKLIELPTDKKAGIGIGLTDHTLEHHHHHH”, the protein production was “not failed”. For “MPYVDRQNRICGFLDIEDNENSGKFLRRYFILDTQANCLLWYMDNPQNLAVGAGAVGSLQLTYISKVSIATPKQKPKTPFCFVINALSQRYFLQANDQKDLKDWVEALNQASK”, the protein production was “not failed”. For “MPYVFSFKMPQEQGQMFQYYPVYMVLPWEQPQQTVPRSPQQTRQQQYEEQIPFYAQFGYIPQLAEPAISGGQQQLAFDPQLGTAPEIAVMSTGEEIPYLQKEAINFRHDSAGVFMPSTSPKPSTTNVFTSAVDQTITPELPEEKDKTDSLREP”, the protein production was “failed”. With “MQAALEVTARYCGRELEQYGQCVAAKPESWQRDCHYLKMSIAQCTSSHPIIRQIRQACAQPFEAFEECLRQNEAAVGNCAEHMRRFLQCAEQVQPPRSPATVEAQPLPAS” the protein production was “failed”. In the case of “MQADPAIRRFAKKRNKRVDRMILDSNYMHTSIDRYFPNESKRRGRPDIIYLLLEMTQESILNHKNQLRTYVHTRNNQVIRISPITRMPKSYNRFIGLFEDLFEKRIITNNGKELLSMEESSLGDLINSIRRDRTILLHPKGEMRKPSEFISNANILIVIGGFSEGDFISDTSFINERYAIFDQELTIWSVANEMVANYERAVGLTLEHHHHHH”, the protein production is reported as “not failed”. In the case of “MQAFFANPAVSWTLLTTGGILLVVIWVLLSLAFLLLADRKIWAGVQMRKGPNVVGPFGLLQSFADFFKFVLKEIVIPAGADKVVFILAPLISLILAFVGWAVVPFAPGWVVSNLNVGILYLLAMSSLGVYGIIMGGWASNSKYPFLGALRSAAQMVSYEVSIGLIIITVILLAGSMNLSTIVEKQSGWIWNWNVFGGGLNNLVLLPVMVVAMGMFYISALAETNRPPFDLPEAESELVAGYQVEYSSTPYLLFMVAEYSNIVLMCAMISVLFFGGWNPGFPTDFLSSWHPFAANLFLALVFYAKICFWFFMFAMAKAIVPRYRYDQLMRLGWKVFLPTSLVLVAAVAAWRVFGPAA”, the protein production is reported as “failed”. With “MQAMTERLEAMLAQGTDNMLLRFTLGKTYAEHEQFDAALPHLRAALDFDPTYSVAWKWLGKTLQGQGDRAGARQAWESGLAAAQSRGDQQVVKELQVFLRRLAREDAQHGG” the protein production was “failed”. For “MQAVHGRSRKPADPAYQAGLAEELRQSYGRAGLIELYGRFATGDGVVDSLMRKAIWQAITRRCGEGLQVASGAGFKHPETFEIGDGVFIGAQAYIQGRYDGTCVIGDNVWIGPMAYFDARDLVIEDSVGWGPGAKVLGSTHTALPIDVPIIRTDLEIRPVRICAEADIGTNATILPGVTIGKGAIVGAGAVVVSDVEPFSVAAGVPAKFIRWRSENDPMTNMSREGRS”, the protein production was “failed”. For “MQCNVCEFGCEIDEYSRGRCRTYVCTGDTIIQDPDMGYLGAYPVSIETIPLLHYYPSGKFLQVFGTGCNFQCSGCVARLLASGKSLSSTTLTPSQVVEKALQQDCLGVVSTLNEPAANYYLFRDLAVQAKEKGLLVGCSTNCYFTEETLNKLGQLVDFMNVGIKGYSDRSYISCGVPSSAPVFRNISLLFDMGVHVETSVVYSRGNEADVIKVAEAVSDISPTIPVQVMRFIPFGDAPIELEPSVGEAESLCADLRKYVDYVYLFNSPGTELLNTYCPECGSLLAEREFYGPMGSRPVRPWITYSCDCGKTVPVKGTTAVERFNEEGFMGGYRISRAFGMVHGVLTCLGILDDSRLIDVWREISDSGTLMKVHHMIQQPYAYLDFVRLIAERANMPEKGEELISFIHTRLELVKSLAAENSGHKVYYCMGSPLFALNAGRMENNLVAFSGGLSINKQLQKEGKPGINVSPSFINENNPDTIFISGFLSRPLDEFYTLCRQYGIETDAVKQQRVYEVPPSWDFGNPRWILGLMYIADKLYPGNSGIDLEKEADEFYRQFYGMPYLEHHHHHH”, the protein production was “not failed”. With “MQDELVILSSIASIMVAIIVLILFYIEKIRTYVGVFFVYFSLTMMIAMFVGASIYLLYPSRVSLAIAFGINTFIMIPLIAYFLLKIAKLANTPFRGERTHVVIFSILLVLNEILMGTTFGIAQFGFSRFSNLYYSLYFSINSYWFFYPMMAEMLALYLLHYLKGSINRELFPLIGLATFPPTAFDYQEWFYSALIFSLAFSILGSILSKRLWRYVYLMLILSELILLINAIPYDIAIAISMILYYYQSLLPLRR” the protein production was “failed”. For “MQDFRFVAAAIVFIFTLILVTVRPWKIDIGYGALIGAFVSIILGISTPADVIKVWNIIWNPTFTFVAIIAMSLVLDYAGFFEYYAIRISKFAGGNGIKLFVFIVILGSLTAAFFANDGAVLVLTPIVLSIMDMTGIGKKGAVAYIMAIGFISDSSSLPFVISNLVNIIGSGYFGISFASYAKVMVIPDIISVVSSLGLLLLYYRKDIPRIYQVESLPNPKNVIKDPLIFKLAFPFMAIVVLAYFLTSFDLVPVSFVAVPAATILIVVARYNHRINTRSIIAEAPWQVVVFSLGMYIVVYGFGDNGLTSVLVHVTKSILLLGNPLSTVLAGLLFGAMAGSMNNLPSVMMGALTISHLNQNSFLIYANVIGNDIGPKFTPIGSLATLLWIYTLQRKHGVQITPIYYMKVGFIIAFPVLVLTLLSLYATIYFGL”, the protein production was “failed”.
